# Measurements as given in patent US20230365711A1 (Hoffmann-La Roche, published 2023).
# T1: huNABA-avi-his (hybrid protein N-A1-B3-A2: N and A1 domains of human BGP, B3 domain of human CEA, A2 domain … (human, biotinylated at the avi tag (in vivo, co-transfected biotin ligase)))
# T1 construct: also called NABA-avi-his reagent; biotinylated NABA
# T1 chain: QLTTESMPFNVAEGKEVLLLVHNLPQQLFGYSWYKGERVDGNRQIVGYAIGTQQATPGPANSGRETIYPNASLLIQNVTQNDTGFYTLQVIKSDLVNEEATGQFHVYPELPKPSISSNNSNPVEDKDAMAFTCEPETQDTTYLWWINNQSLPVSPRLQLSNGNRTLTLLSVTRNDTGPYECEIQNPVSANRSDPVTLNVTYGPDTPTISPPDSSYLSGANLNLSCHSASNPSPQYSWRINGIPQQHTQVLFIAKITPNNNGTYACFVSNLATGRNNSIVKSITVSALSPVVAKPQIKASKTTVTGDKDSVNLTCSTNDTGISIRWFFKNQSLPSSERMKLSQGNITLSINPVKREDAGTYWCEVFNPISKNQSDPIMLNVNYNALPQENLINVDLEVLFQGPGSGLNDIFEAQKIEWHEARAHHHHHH
# Experiments:
# [1] = target: T1, huNABA-avi-his (hybrid protein …); assay: Biacore on immobilized NABA-avi-his; Bivalent Affinity
# [2] = target: T1, huNABA-avi-his (hybrid protein …); assay: Proteon SPR, antibody analyte on biotinylated NABA (Neutravidin chip)
# [3] = target: T1, huNABA-avi-his (hybrid protein …); assay: as above
# From the text: (§1) Shown in FIG. 22 are Proteon (Biacore) sensorgrams obtained for the binding of the CDR-H3 antibody variants to the CEA antigen-harbouring chimeric protein NABA. […] The affinity matured precursor clone 5HFF12 and the parental antibody CH7A were included for direct comparison. All antibodies tested in this assay had 2F1 as the light chain. […] The relative affinity of each, measured in the bivalent form, is as follows: 5HFF12>CH7A (Y98A/D99Y)>CH7A (Y98A)>CH7A>CH7A (E102Q)>CH7A (D99Y)>CH7A (D99H)>CH7A (A103T)>CH7A (V101F)>CH7A (W95Y).
# [4] = target: T1, huNABA-avi-his (hybrid protein …); assay: as above
# From the text: (§2) Proteon (Biacore) sensorgrams were obtained for the binding of the combined framework and CDR-H3 variants to the CEA antigen-harbouring chimeric protein NABA. […] The precursor clone 5L1A10 and the parental antibody CH7A were included for direct comparison. All antibodies tested in this assay had 2F1 as the light chain FIG. 25.
# [5] = target: T1, huNABA-avi-his (hybrid protein …); assay: Proteon SPR, antibody analyte on biotinylated NABA (Neutravidin chip); column Ka (M)
# [6] = target: T1, huNABA-avi-his (hybrid protein …); assay: as above
# From the text: as §1
# [7] = target: T1, huNABA-avi-his (hybrid protein …); assay: as above
# From the text: as §2
# [8] = target: T1, huNABA-avi-his (hybrid protein …); assay: Biacore, Fab on immobilized NABA-avi-his; column Monovalent Affinity
# [9] = target: T1, huNABA-avi-his (hybrid protein …); assay: Biacore SPR, Fab; antigen not named on the sheet, NABA-avi-his per paragraph 230
# [10] = target: T1, huNABA-avi-his (hybrid protein …); assay: Biacore, column Affinity, CDR-L1 and CDR-L2 rows; antigen not named on the sheet, NABA-avi-his per paragraph 230
Binder,Kd [3] [nM],Kd [4] [nM],kon [6] [M⁻¹ s⁻¹],kon [7] [M⁻¹ s⁻¹],Kd [8] [nM],koff [8] [s⁻¹],kon [8] [M⁻¹ s⁻¹],Kd [9] [nM],further results
"humanized PR1A3 antibody with heavy chain variable region CH7A and light chain variable region 2F1 (antibody, V domains shown, Measured in the bivalent form; also called CH7Ax2F1; parental antibody CH7A) VH: QVQLVQSGSELKKPGASVKVSCKASGYTFTEFGMNWVRQAPGQGLEWMGWINTKTGEATYVEEFKGRFVFSLDTSVSTAYLQISSLKAEDTAVYYCARWDFYDYVEAMDYWGQGTTVTVSS VL: DIQMTQSPSSLSASVGDRVTITCKASAAVGTYVAWYQQKPGKAPKLLIYSASYRKRGVPSRFSGSGSGTDFTLTISSLQPEDFATYYCHQYYTYPLFTFGQGTKLEIKR",1.07,1.97,132000,369000,,,,,Kd [1]: 0.952 nM; koff [1]: 0.00041 s⁻¹; kon [1]: 423000 M⁻¹ s⁻¹; Kd [2]: 1.84 nM; kon [5]: 122000 M⁻¹ s⁻¹
"anti-CEA Fab with unmatured heavy chain CH7A and affinity matured light chain CL1A pAC18 (Fab, V domains shown, Fab format, bacterially expressed; also called CH7A + CL1A pAC18) VH: QVQLVQSGSELKKPGASVKVSCKASGYTFTEFGMNWVRQAPGQGLEWMGWINTKTGEATYVEEFKGRFVFSLDTSVSTAYLQISSLKAEDTAVYYCARWDFYDYVEAMDYWGQGTTVTVSS VL: DIQMTQSPSSLSASVGDRVTITCKASAAVGTYVAWYQQKPGKAPKLLIYSASYRKRGVPSRFSGSGSGTDFTLTISSLQPEDFATYYCHQYYTYPLFTFGQGTKLEIKR",,,,,220,0.0207,95700,216,Kd [10]: 220 nM
"anti-CEA Fab with affinity matured heavy chain CH7A H4E9 and affinity matured light chain CL1A pAC18 (Fab, V domains shown, Fab format, bacterially expressed; also called CH7A H4E9 and CL1A pAC18) VH: QVQLVQSGSELKKPGASVKVSCKASGYTFTEFGMNWVRQAPGQGLEWMGWINTKTGEATYIEEFKGRFVFSLDTSVSTAYLQISSLKAEDTAVYYCARWDFYDYVEAMDYWGQGTTVTVSS VL: DIQMTQSPSSLSASVGDRVTITCKASAAVGTYVAWYQQKPGKAPKLLIYSASYRKRGVPSRFSGSGSGTDFTLTISSLQPEDFATYYCHQYYTYPLFTFGQGTKLEIKR",,,,,96,0.0035,36400,96,
"antibody with heavy chain CH7A (Y98A/D99Y) and light chain 2F1 (antibody, V domains shown, Bivalent form; also called double mutant (Y98A/D99Y)) VH: QVQLVQSGSELKKPGASVKVSCKASGYTFTEFGMNWVRQAPGQGLEWMGWINTKTGEATYVEEFKGRFVFSLDTSVSTAYLQISSLKAEDTAVYYCARWDFAYYVEAMDYWGQGTTVTVSS VL: DIQMTQSPSSLSASVGDRVTITCKASAAVGTYVAWYQQKPGKAPKLLIYSASYRKRGVPSRFSGSGSGTDFTLTISSLQPEDFATYYCHQYYTYPLFTFGQGTKLEIKR",0.186,0.465,236000,481000,,,,,
"CH1A1A (Y98A/D99Y) 2F1 (antibody, V domains shown, also called CH1A1A (98/99); CH1A1A (Y98A/D99Y)x2F1) VH: QVQLVQSGAEVKKPGASVKVSCKASGYTFTEFGMNWVRQAPGQGLEWMGWINTKTGEATYVEEFKGRVTFTTDTSTSTAYMELRSLRSDDTAVYYCARWDFAYYVEAMDYWGQGTTVTVSS VL: DIQMTQSPSSLSASVGDRVTITCKASAAVGTYVAWYQQKPGKAPKLLIYSASYRKRGVPSRFSGSGSGTDFTLTISSLQPEDFATYYCHQYYTYPLFTFGQGTKLEIKR",,0.537,,628000,,,,,
"CH1A1B (Y98A/D99Y) 2F1 (antibody, V domains shown) VH: QVKLQQSGAEVKKPGASVKVSCKASGYTFTEFGMNWVRQAPGQGLEWMGWINTKTGEATYVEEFKGRVTMTTDTSTSTAYMELRSLRSDDTAVYYCARWDFAYYVEAMDYWGQGTTVTVSS VL: DIQMTQSPSSLSASVGDRVTITCKASAAVGTYVAWYQQKPGKAPKLLIYSASYRKRGVPSRFSGSGSGTDFTLTISSLQPEDFATYYCHQYYTYPLFTFGQGTKLEIKR",,0.507,,711000,,,,,
